The text below walks through data of article doi:10.1101/2021.01.11.425814 (bioRxiv, 2021).

In the assay the target is p53 transactivation domain (TAD) (13-61) (human, UniProt P04637 13-61). Put plainly: ITC. A general note: In ITC the heat of successive injections is recorded.

By stoichiometry N is commonly meant a count of units in the complex or per binding partner.

p53 transactivation domain (TAD) (13-61), sequence (P04637 13-61): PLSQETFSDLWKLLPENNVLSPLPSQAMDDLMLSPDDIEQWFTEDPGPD

B1: FOXO4 forkhead domain (FHD) (95-195) (domain or fragment)
chain: GSRRNAWGNQSYAELISQAIESAPEKRLTLAQIYEWMVRTVPYFKDKGDSNSSAGWKNSIRHNLSLHSKFIKVHNEATGKSSWWMLNPEGGKSGKAPRRRA
Take B1: the dH amounted to 12.3 kcal/mol and the “stoichiometry N” value amounted to 1.04.
